# According to patent US11608380B2, “Anti-EGFRvIII antibodies and uses thereof” (REGENERON PHARMACEUTICALS, INC., priority 2014, dated 2023):
# Read-outs that look alike come from different tables or passages of the source.
# Columns and labels:
# EGFRvIII-mFc [1] = assay: SPR (BIACORE) binding kinetics, mAb-capture format; design: species or system human; conditions: 37° C., NB=no binding
# EGFRvIII-mmh = EGFRvIII-mmh (Homo sapiens, UniProt P00533, DELINS30-297G); assay: SPR (BIACORE) binding kinetics, mAb-capture format; conditions: 37° C., NB=no binding
# Experimental: (§1) Measurements were conducted on a T100 BIACORE™ instrument. […] In the receptor-capture format, either EGFRvIII-mFc or EGFR-mFc, was captured on the BIACORE™ chip and the respective antibodies flowed over. Kinetic association (ka) and dissociation (kd) rate constants were determined by processing and fitting the data to a 1:1 binding model using Scrubber 2.0 curve fitting software. Binding dissociation equilibrium constants (KD) and dissociative half-lives (t1/2) were calculated from the kinetic rate constants as: KD (M)=kd/ka; and t1/2 (min)=ln 2/(60*kd).
# EGFR-mFc = EGFR-mFc (Homo sapiens, UniProt P00533); assay: SPR (BIACORE) binding kinetics, receptor-capture format; conditions: 37° C., EGFR-mFc captured, NB=no binding
# Experimental: as §1
# HEK293 cells = assay: FACS cell binding selectivity; assay type: cell-based; conditions: directly labeled (ALEXA FLUOR 488) antibodies, 10 μg/ml
# Experimental: To determine the specificity of the anti-EGFRvIII mAbs, their binding to HEK293, HEK293 cells expressing EGFRvIII (HEK293/EGFRvIII) and A431 cells, was analyzed by fluorescence activated cell sorting (FACS). HEK293/EGFRvIII cells were prepared by transfecting HEK293 cells with neomycin resistant DNA vectors constitutively expressing full-length hEGFRvIII (SEQ ID NO:147) using LIPOFECTAMINE™ 2000 transfection reagent (INVITROGEN™). At two days post-transfection, cells were placed under G418 selection for approximately two weeks. Populations positively expressing EGFRvIII were isolated via fluorescence activated cell sorting (FACS). The HEK293 cells expressing ˜3×10^6 copies of EGFRvIII per cell were used in the experiment. Briefly, the anti-EGFRvIII antibodies at 10 μg/ml were incubated with cells for 30 minutes at room temperature, washed, incubated with secondary antibody, i.e., phycoerythrin (PE)-labeled goat F(ab′)2 against human IgG (cat #109-116-170, Jackson ImmunoResearch Laboratories), followed by a final wash before FACS analysis. In another set of experiment, anti-EGFRvIII antibodies were directly conjugated via their lysine residues with the fluorescent dye, ALEXA FLUOR® 488 Dye (INVITROGEN™), thereby eliminating the step using the secondary antibody. […] Controls I, II, III, IV and V are described above. MFI: Mean Fluorescence Intensity.
# EGFRvIII-mFc [2] = assay type: binding, human; conditions: 37° C., receptor-capture, EGFRvIII-mFc captured
# Experimental: as §1
# Chain of EGFRvIII-mFc (as listed by the source): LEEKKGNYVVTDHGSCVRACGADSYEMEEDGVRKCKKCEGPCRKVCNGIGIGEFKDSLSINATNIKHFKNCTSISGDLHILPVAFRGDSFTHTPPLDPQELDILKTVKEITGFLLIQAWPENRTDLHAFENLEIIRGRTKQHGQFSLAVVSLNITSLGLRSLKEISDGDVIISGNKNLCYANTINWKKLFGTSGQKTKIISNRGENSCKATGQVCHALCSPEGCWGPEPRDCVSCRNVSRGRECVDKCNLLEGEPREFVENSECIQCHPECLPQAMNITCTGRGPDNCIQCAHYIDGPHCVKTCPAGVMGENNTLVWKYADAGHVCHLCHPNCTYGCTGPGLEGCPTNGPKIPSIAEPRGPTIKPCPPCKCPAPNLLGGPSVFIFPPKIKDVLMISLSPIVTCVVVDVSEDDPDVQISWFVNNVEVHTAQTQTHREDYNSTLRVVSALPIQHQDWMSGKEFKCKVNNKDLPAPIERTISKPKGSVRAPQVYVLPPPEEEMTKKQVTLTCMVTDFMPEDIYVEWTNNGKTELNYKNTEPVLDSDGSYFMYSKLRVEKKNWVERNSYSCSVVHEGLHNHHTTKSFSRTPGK
molecule,measurement,setting,value
"H1H1913N: human IgG1 Fc anti-EGFRvIII antibody with variable domains 1913; HCVR/LCVR SEQ ID NOs 130/138 (antibody, V domains shown, human IgG1 Fc) VH: QVQLQQWGAGLLKPSETLSLTCAVYGGSFSGDYWSWIRQSPGKGLEWIGEINHSGSTNYNPSLKSRVTISIDTSKNQFSLKLSSVTAADTAVYYCARGGGDYYYGMDVWGLGTTVTVSS VL: AIQMTQSPSSLSASVGDRVTITCRASQGIGNDLGWYQQKPGKAPNLLIYATSSLQSGVPSRFSGSGSGTDFTLTISSLQPEDFATYYCLQDYNYPWTFGQGTKVEIK",ka,EGFRvIII-mFc [1]; analyte EGFRvIII-mFc (dimeric),14000 M⁻¹ s⁻¹
same,kd,EGFRvIII-mFc [1]; analyte EGFRvIII-mFc,0.000316 s⁻¹
same,ka,EGFRvIII-mmh; analyte EGFRvIII-mmh (monomeric),163 M⁻¹ s⁻¹
same,kd,EGFRvIII-mmh; analyte EGFRvIII-mmh,0.00114 s⁻¹
same,ka,EGFR-mFc,5930 M⁻¹ s⁻¹
same,kd,EGFR-mFc,1e-06 s⁻¹
same,Parental HEK293 MFI,HEK293 cells,4801
same,Kd,EGFRvIII-mFc [2],0.0158 nM
same,ka,EGFRvIII-mFc [2],63000 M⁻¹ s⁻¹
